Measurements reported in US10434088B2, “Methods related to administering immunosuppressants and therapeutic macromolecules at a reduced pharmacodynamically effective dose” (Selecta Biosciences, Inc., priority 2013, dated 2019).

B1: aggOVA: chicken ovalbumin induced using high sheer to form aggregates to increase its immunogenicity (protein, UniProt P01012 2-386, looked up)
Ovalbumin: GSIGAASMEFCFDVFKELKVHHANENIFYCPIAIMSALAMVYLGAKDSTRTQINKVVRFDKLPGFGDSIEAQCGTSVNVHSSLRDILNQITKPNDVYSFSLASRLYAEERYPILPEYLQCVKELYRGGLEPINFQTAADQARELINSWVESQTNGIIRNVLQPSSVDSQTAMVLVNAIVFKGLWEKAFKDEDTQAMPFRVTEQESKPVQMMYQIGLFRVASMASEKMKILELPFASGTMSMLVLLPDEVSGLEQLESIINFEKLTEWTSSNVMEERKIKVYLPRMKMEEKYNLTSVLMAMGITDVFSSSANLSGISSAESLKISQAVHAAHAEINEAGREVVGSAEAGVDAASVSEEFRADHPFLFCIKHIATNAVLFFGRCVSP
modifications: shear-induced aggregates
B2: pOVA: immunogenic form of particulate Ovalbumin (protein, UniProt P01012 2-386, looked up)
Ovalbumin: GSIGAASMEFCFDVFKELKVHHANENIFYCPIAIMSALAMVYLGAKDSTRTQINKVVRFDKLPGFGDSIEAQCGTSVNVHSSLRDILNQITKPNDVYSFSLASRLYAEERYPILPEYLQCVKELYRGGLEPINFQTAADQARELINSWVESQTNGIIRNVLQPSSVDSQTAMVLVNAIVFKGLWEKAFKDEDTQAMPFRVTEQESKPVQMMYQIGLFRVASMASEKMKILELPFASGTMSMLVLLPDEVSGLEQLESIINFEKLTEWTSSNVMEERKIKVYLPRMKMEEKYNLTSVLMAMGITDVFSSSANLSGISSAESLKISQAVHAAHAEINEAGREVVGSAEAGVDAASVSEEFRADHPFLFCIKHIATNAVLFFGRCVSP
modifications: particulate form
notes: immunogenic form of particulate Ovalbumin

Columns and labels:
[1] = test system: anti-OVA antibody (Ab) response; experiment: Example 2: anti-OVA antibody response to aggOVA; format: in vivo, C57BL/6 mice; settings: 25 μg aggOVA i.v. d0, 14, 28 then boosts; nanocarriers i.v. (100 μg rapamycin) concomitantly d0, 14, 28 only; days 25, 40 and next 60 days; FIG. 3
[2] = test system: anti-OVA IgG antibody response; experiment: Example 9: anti-OVA IgG antibody titers; format: in vivo, C57BL/6; settings: 2.5 μg pOVA i.v. weekly; 0.2 mg nanocarrier admixed days 0, 7, 14; FIG. 11
Protocol: The control group of C57BL/6 age-matched (5-6 weeks) female were injected i.v. in the tail vein with 2.5 μg of an immunogenic form of particulate Ovalbumin (pOVA) and 2 μg of Keyhole Limpet Hemocyanin (KLH) s.c. in the hind limb once a week for 49 days (d0, 7, 14, 20, 28, 35, 42, 49).

Molecule | anti-OVA antibody (IgG) response [1] | anti-OVA IgG antibody titers at day 54 [2]
B1 | prominent anti-OVA antibody (Ab) response | 
B2 |  | robust immune response
